Results on five molecules are retold here after publication PMC3822002 (Chembiochem : a European journal of chemical biology, 2013).

Experiment [1] deals with Nedd8 activating enzyme (NAE), heterodimer of APPBP1 and Uba3 (UniProt Q13564).
Experiment [2] concerns tumor growth. The note with it: ref [31]–[32]; cited from earlier work.
In experiment [3] the target is T1, NAE (Homo sapiens, UniProt Q13564+Q8TBC4).
T1 sequence (Q8TBC4 1-463): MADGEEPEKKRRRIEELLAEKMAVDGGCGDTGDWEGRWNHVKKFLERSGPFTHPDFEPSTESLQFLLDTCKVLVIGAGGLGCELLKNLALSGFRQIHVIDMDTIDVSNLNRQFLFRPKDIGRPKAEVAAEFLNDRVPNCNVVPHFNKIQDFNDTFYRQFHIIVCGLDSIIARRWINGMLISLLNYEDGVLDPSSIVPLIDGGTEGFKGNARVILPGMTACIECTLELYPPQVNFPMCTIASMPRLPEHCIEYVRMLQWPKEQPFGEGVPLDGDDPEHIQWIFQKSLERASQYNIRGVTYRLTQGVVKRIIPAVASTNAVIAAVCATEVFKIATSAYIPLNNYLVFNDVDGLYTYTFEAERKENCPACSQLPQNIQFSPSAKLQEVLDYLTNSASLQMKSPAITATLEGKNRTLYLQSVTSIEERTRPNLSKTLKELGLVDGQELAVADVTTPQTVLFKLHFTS
T1 sequence (Q13564 1-534): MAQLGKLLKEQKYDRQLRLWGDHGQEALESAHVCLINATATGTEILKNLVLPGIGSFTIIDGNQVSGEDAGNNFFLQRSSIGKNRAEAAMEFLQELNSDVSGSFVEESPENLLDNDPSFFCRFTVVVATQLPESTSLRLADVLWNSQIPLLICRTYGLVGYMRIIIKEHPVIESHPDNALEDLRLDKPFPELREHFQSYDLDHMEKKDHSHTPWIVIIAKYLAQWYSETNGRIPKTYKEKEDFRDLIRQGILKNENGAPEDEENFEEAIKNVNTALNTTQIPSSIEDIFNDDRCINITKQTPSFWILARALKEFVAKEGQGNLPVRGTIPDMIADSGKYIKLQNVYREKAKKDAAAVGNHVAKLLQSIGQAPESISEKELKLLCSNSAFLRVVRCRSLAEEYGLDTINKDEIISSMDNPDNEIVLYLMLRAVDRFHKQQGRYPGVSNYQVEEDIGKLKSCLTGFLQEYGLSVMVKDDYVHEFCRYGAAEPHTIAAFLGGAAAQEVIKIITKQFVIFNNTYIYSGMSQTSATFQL
As to conditions: covalent adduct with the C-terminus of Nedd8; ref [16], [30]; cited from earlier work.

Experiment [4] concerns CRL substrates. The note with it: ref [31]–[32]; cited from earlier work.

In experiment [1], “Nedd8 variant ND4 (71RLWFGG76), N-terminal GST fusion (from UniProt Q15843 1-76)” showed a K1/2 of the ATP-PPi exchange reaction catalysed by NAE, saturating ATP of 4.5 µM.

“wt Nedd8 (71LALRGG76), N-terminal GST fusion (from UniProt Q15843 1-76) (natural protein)” returned a K1/2 of the ATP-PPi exchange reaction catalysed by NAE, saturating ATP in experiment [1] of 1.3 µM.

For `NS(=O)(=O)OC[C@@H]1C[C@@H](n2ccc3c(N[C@H]4CCc5ccccc54)ncnc32)C[C@@H]1O` [MLN4924], in experiment [2], the “effect on tumor growth” value is recorded as “inhibit tumor growth”. For the same molecule, the NAE inhibition entry in experiment [3] is reported as “potent inhibitor of NAE”. The “effect on ubiquitination and degradation of CRL substrates” value in experiment [4] was “block ubiquitination and degradation of CRL substrates”.

The molecule “Nedd8 variant ND20 (71ILTFGG76), N-terminal GST fusion (from UniProt Q15843 1-76)” returned a K1/2 of the ATP-PPi exchange reaction catalysed by NAE, saturating ATP in experiment [1] of 0.45 µM.

As to “Nedd8 variant ND1 (71LQWFGG76), N-terminal GST fusion (from UniProt Q15843 1-76)”, the K1/2 of the ATP-PPi exchange reaction catalysed by NAE, saturating ATP in experiment [1] turned out to be 150 µM.
